Source: patent US20230183319A1 (published 2023)

B1: GDF11 (ligand)
chain: NLGLDCDEHSSESRCCRYPLTVDFEAFGWDWIIAPKRYKANYCSGQCEYMFMQKYPHTHLVQQANPRGSAGPCCTPTKMSPINMLYFNDKQQIIYGKIPGMVVDRCGCS
B2: BMP9 (ligand)
chain: SAGAGSHCQKTSLRVNFEDIGWDSWIIAPKEYEAYECKGGCFFPLADDVTPTKHAIVQTLVHLKFPTKVGKACCVPTKLSPISVLYKDDMGVPTLKYHYEGMSVAECGCR
B3: BMP10 (ligand)
chain: NAKGNYCKRTPLYIDFKEIGWDSWIIAPPGYEAYECRGVCNYPLAEHLTPTKHAIIQALVHLKNSQKASKACCVPTKLEPISILYLDKGVVTYKFKYEGMAVSECGCR
B4: Activin A (ligand)
chain: GLECDGKVNICCKKQFFVSFKDIGWNDWIIAPSGYHANYCEGECPSHIAGTSGSSLSFHSTVINHYRMRGHSPFANLKSCCVPTKLRPMSMLYYDDGQNIIKKDIQNMIVEECGCS
B5: ActRIIB-G1Fc (SEQ ID NO: 519) (Fc fusion)
chain: GRGEAETRECIYYNANWELERTNQSGLERCEGEQDKRLHCYASWRNSSGTIELVKKGCWLDDFNCYDRQECVATEENPQVYFCCCEGNFCNERFTHLPEAGGPEVTYEPPPTAPTGGGTHTCPPCPAPELLGGPSVFLFPPKPKDTLMISRTPEVTCVVVDVSHEDPEVKFNWYVDGVEVHNAKTKPREEQYNSTYRVVSVLTVLHQDWLNGKEYKCKVSNKALPVPIEKTISKAKGQPREPQVYTLPPSREEMTKNQVSLTCLVKGFYPSDIAVEWESNGQPENNYKTTPPVLDSDGSFFLYSKLTVDKSRWQQGNVFSCSVMHEALHNHYTQKSLSLSPGK

Tests used:
L79K / F82K = test: SPR; 37C
K55A / F82I = test: SPR; 37C
K74A = test: SPR; 37C
L38Q = test: SPR; 25C
Q98L = test: SPR; 25C
Q98I = test: SPR; 25C
N35Q = test: SPR; 25C
Q98K = test: SPR; 25C
Q98R = test: SPR; 25C
N35F = test: SPR; 25C
L38R = test: SPR; 25C
Q98V = test: SPR; 25C
Q98A = test: SPR; 25C
L38D = test: SPR; 25C
activin B = target: T1, activin B (UniProt P09529 293-407); test: SPR; 37C
T1 chain: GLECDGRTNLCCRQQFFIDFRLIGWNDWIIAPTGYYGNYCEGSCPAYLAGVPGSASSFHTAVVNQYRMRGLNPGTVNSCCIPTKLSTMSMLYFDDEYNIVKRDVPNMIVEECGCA

GDF11 = target: B1; test: SPR; 37C
activin A = target: T2, activin A (UniProt P08476 311-426); test: SPR; 37C
T2 chain: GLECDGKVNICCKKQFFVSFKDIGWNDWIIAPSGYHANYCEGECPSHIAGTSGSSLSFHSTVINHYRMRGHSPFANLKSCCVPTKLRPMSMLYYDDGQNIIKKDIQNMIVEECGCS

GDF8 = GDF8 (UniProt O14793 267-375); test: SPR; 37C
Sequence of GDF8 (O14793 267-375): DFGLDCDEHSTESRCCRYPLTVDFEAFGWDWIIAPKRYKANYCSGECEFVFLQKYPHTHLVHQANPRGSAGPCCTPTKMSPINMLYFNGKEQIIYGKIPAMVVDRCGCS

BMP10 = target: B3; test: SPR; 37 C
BMP9 = target: B2; test: SPR; 37 C
BMP6 = target: T3, BMP6 (UniProt P22004 382-513); test: SPR; 37 C
T3 chain: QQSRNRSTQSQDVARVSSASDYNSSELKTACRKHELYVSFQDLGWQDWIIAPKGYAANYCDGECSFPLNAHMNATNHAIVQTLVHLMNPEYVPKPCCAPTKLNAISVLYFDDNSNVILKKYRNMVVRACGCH

Binder	Kd (L79K / F82K)	Kd (K55A / F82I)	Kd (K74A)	Kd (L38Q)	Kd (Q98L)	Kd (Q98I)	Kd (N35Q)	Kd (Q98K)	Kd (Q98R)	Kd (N35F)	Kd (L38R)	Kd (Q98V)	Kd (Q98A)	Kd (L38D)	also measured
B1	1.6 nM	0.09 nM	0.43 nM	0.021 nM	0.043 nM	0.049 nM	0.02 nM	0.037 nM	0.02 nM	0.017 nM	0.007 nM	0.033 nM	0.037 nM	0.03 nM	–
B2	–	0.134 nM	0.36 nM	0.033 nM	0.071 nM	0.059 nM	–	0.069 nM	0.074 nM	–	0.05 nM	0.047 nM	0.043 nM	0.063 nM	–
B3	0.068 nM	0.007 nM	0.033 nM	0.089 nM	0.065 nM	0.21 nM	0.27 nM	0.068 nM	0.32 nM	0.22 nM	0.11 nM	0.048 nM	0.21 nM	0.15 nM	–
B4	0.64 nM	0.047 nM	0.034 nM	0.2 nM	0.22 nM	0.157 nM	0.32 nM	0.145 nM	0.3 nM	0.29 nM	0.23 nM	0.16 nM	0.155 nM	0.23 nM	–
B5	–	–	–	–	–	–	–	–	–	–	–	–	–	–	Kd (activin B): 0.0225 nM; Kd (GDF11): 0.00491 nM; Kd (activin A): 0.0135 nM; Kd (GDF8): 0.0795 nM; Kd (BMP10): 0.00841 nM; Kd (BMP9): 0.0831 nM; Kd (BMP6): 0.431 nM
